Results published in US6372467.

Tests used:
[1] = molecular target: Glutathione-S-transferase (GST)-tagged S6

Protein | in vitro kinase assay (phosphorylation of GST-S6 by anti-HA immunoprecipitates) [1] | in vitro kinase assay (screen of substrates) (histone H2B)
hemagglutinin (HA)-tagged p54^S6K (protein) MAAVFDLDLETEEGSEGEGEPELSPADACPLAELRAAGLEPVGHYEEVELTETSVNVGPERIGPHCFELLRVLGKGGYGKVFQVRKVQGTNLGKIYAMKVLRKAKIVRNAKDTAHTRAERNILESVKHPFIVELAYAFQTGGKLYLILECLSGGELFTHLEREGIFLEDTACFYLAEITLALGHLHSQGIIYRDLKPENIMLSSQGHIKLTDFGLCKESIHEGAVTHTFCGTIEYMAPEILVRSGHNRAVDWWSLGALMYDMLTGSPPFTAENRKKTMDKIIRGKLALPPYLTPDARDLVKKFLKRNPSQRIGGGPGDAADVQRHPFFRHMNWDDLLAWRVDPPFRPCLQSEEDVSQFDTRFTRQTPVDSPDDTALSESANQAFLGFTYVAPSVLDSIKEGFSFQPKLRSPRRLNSSPRVPVSPLKFSPFEGFRPSPSLPEPTELPLPPLLPPPPPSTTAPLPIRPPSGTKKSKRGRGRPGR | p54^S6K kinase activity towards S6 was stimulated by serum treatment of the cells | p54^S6K can phosphorylate both S6 and histone H2B
HA-p54^S6K KR (protein) MAAVFDLDLETEEGSEGEGEPELSPADACPLAELRAAGLEPVGHYEEVELTETSVNVGPERIGPHCFELLRVLGKGGYGKVFQVRKVQGTNLGKIYAMRVLRKAKIVRNAKDTAHTRAERNILESVKHPFIVELAYAFQTGGKLYLILECLSGGELFTHLEREGIFLEDTACFYLAEITLALGHLHSQGIIYRDLKPENIMLSSQGHIKLTDFGLCKESIHEGAVTHTFCGTIEYMAPEILVRSGHNRAVDWWSLGALMYDMLTGSPPFTAENRKKTMDKIIRGKLALPPYLTPDARDLVKKFLKRNPSQRIGGGPGDAADVQRHPFFRHMNWDDLLAWRVDPPFRPCLQSEEDVSQFDTRFTRQTPVDSPDDTALSESANQAFLGFTYVAPSVLDSIKEGFSFQPKLRSPRRLNSSPRVPVSPLKFSPFEGFRPSPSLPEPTELPLPPLLPPPPPSTTAPLPIRPPSGTKKSKRGRGRPGR | The KR mutation of p54^S6K abolished the kinase activity in an in vitro kinase assay | –
